Positions count from the first letter of the chain named. Names and notes keep the numbering of the source.
Biological target: recombinant PD-1 molecule (rPD-1), Q15116
Assay: ELISA
Settings: chain shown with the change, coated antigen (rPD1): 2 µg/mL and 50 µL/well, read off a plot
[1] = L-chain 4 µM, parent: est. 0.94
[2] = L-chain 20 µM, parent: est. 1.14
[3] = L-chain 20 µM (prozone region for this mutant), parent: est. 1.14

Chain of recombinant PD-1 molecule (rPD-1), Q15116 (Q15116 25-167): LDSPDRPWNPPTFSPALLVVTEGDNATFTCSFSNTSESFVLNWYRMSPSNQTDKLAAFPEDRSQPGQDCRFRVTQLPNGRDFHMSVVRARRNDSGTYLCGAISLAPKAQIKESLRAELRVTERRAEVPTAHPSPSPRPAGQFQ

B1: H34 wild type (H34wt) catalytic antibody light chain T93A (protein)
chain: DIQMTQSPSTLSASVGDRVTITCRASQSISSWLAWYQQKPGKAPKVLIYKASTLESGVPLRFSGSGSGTEFTLTISSLQPDDFATYYCQQYSAYRTFGQGTKVEIK
response [1]: 0.69 OD (490nm) | response [2]: 1.1 OD (490nm)

B2: H34 wild type (H34wt) catalytic antibody light chain R96A (protein)
chain: B1 chain with A93T, R95A
response [1]: 0.07 OD (490nm) | response [2]: 0.16 OD (490nm)

B3: H34 wild type (H34wt) catalytic antibody light chain D1A (protein)
chain: B1 chain with D1A, A93T
response [1]: 1.12 OD (490nm) | response [3]: 0.63 OD (490nm)

B4: H34 wild type (H34wt) catalytic antibody light chain R96P (protein)
chain: B1 chain with A93T, R95P
response [1]: 0.09 OD (490nm) | response [2]: 0.13 OD (490nm)

B5: H34 wild type (H34wt) catalytic antibody light chain T97A (protein)
chain: B1 chain with A93T, T96A
response [1]: 1.15 OD (490nm) | response [3]: 0.61 OD (490nm)
